These results are taken from PMC9799976.

In assay [1] the target is full-length human dynein complex (heavy chain with SNAP-tag, IC, LIC, Tctex, LC8, Robl) (human) (UniProt Q14204). Put plainly: single-molecule TIRF microscopy; DDJ complexes assembled with equal amounts of dynein labeled with TMR and Alexa 647, without N-DCX; two-colour colocalisation of moving molecules.
Assay [2] addresses fluorescently labelled, biotinylated, taxol-stabilised microtubules for the TIRF assays.
Assay [3] has the same target. Put plainly: single-molecule TIRF microscopy; TIRF landing assay: MTs immobilised on the coverslip, GFP-tagged single-head dynein in motility buffer, 2 mM ATP, with DCX. Further details: landing rate on MTs: unit not given here.
Assay [4] shares this target. Put plainly: single-molecule TIRF microscopy; TIRF landing assay: MTs immobilised on the coverslip, GFP-tagged single-head dynein in motility buffer, 2 mM AMPPNP, with DCX. Further details: landing rate on MTs: unit not given here.
Assay [5] shares this target. Put plainly: single-molecule TIRF microscopy; TIRF landing assay: MTs immobilised on the coverslip, GFP-tagged single-head dynein in motility buffer, 2 mM ATP, without DCX. Further details: landing rate on MTs: unit not given here.
Assay [6] shares this target. Put plainly: single-molecule TIRF microscopy; TIRF landing assay: MTs immobilised on the coverslip, GFP-tagged single-head dynein in motility buffer, 2 mM AMPPNP, without DCX. Further details: landing rate on MTs: unit not given here.
Assay [7] shares this target. Nature of the assay: single-molecule TIRF microscopy; TIRF landing assay: MTs immobilised on the coverslip, GFP-tagged single-head dynein in motility buffer, 2 mM ADP and 0.05 U/µl hexokinase, with DCX. Further details: landing rate on MTs: unit not given here.
For assay [8] the target is unchanged. Put plainly: single-molecule TIRF microscopy; TIRF landing assay: MTs immobilised on the coverslip, GFP-tagged single-head dynein in motility buffer, 2 mM ADP and 0.05 U/µl hexokinase, without DCX. Further details: landing rate on MTs: unit not given here.

fluorescently labelled, biotinylated, taxol-stabilised microtubules for the TIRF assays, sequence (chain, as listed by the source, chain 1 of 2): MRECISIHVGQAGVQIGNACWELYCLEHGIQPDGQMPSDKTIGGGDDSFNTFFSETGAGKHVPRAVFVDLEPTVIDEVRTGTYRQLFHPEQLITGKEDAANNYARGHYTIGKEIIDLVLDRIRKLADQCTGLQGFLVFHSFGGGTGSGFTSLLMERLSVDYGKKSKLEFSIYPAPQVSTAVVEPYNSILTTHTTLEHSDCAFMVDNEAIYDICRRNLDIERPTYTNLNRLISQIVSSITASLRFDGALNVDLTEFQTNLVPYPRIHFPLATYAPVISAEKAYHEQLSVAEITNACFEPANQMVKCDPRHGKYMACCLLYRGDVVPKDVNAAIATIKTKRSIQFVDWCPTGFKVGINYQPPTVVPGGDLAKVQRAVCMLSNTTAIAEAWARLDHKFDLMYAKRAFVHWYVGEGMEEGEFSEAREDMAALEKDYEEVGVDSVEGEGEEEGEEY
fluorescently labelled, biotinylated, taxol-stabilised microtubules for the TIRF assays, sequence (chain, as listed by the source, chain 2 of 2): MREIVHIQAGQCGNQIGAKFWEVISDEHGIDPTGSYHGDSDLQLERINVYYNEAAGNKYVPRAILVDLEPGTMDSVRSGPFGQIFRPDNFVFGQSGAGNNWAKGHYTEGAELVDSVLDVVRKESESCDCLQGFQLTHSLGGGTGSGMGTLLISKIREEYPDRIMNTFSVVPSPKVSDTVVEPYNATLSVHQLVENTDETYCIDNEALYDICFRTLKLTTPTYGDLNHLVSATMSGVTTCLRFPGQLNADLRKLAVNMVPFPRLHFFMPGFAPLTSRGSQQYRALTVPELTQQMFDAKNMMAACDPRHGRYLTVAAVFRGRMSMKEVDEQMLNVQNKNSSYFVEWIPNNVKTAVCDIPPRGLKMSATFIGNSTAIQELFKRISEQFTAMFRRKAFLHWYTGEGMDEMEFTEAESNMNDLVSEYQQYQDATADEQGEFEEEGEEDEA

“full-length human dynein complex (heavy chain with SNAP-tag, IC, LIC, Tctex, LC8, Robl) (from UniProt Q14204 1-4646; Q13409 1-638; O43237 1-492; P63172 1-113; P63167 1-89; Q9NP97 1-96)” returned a fraction of colocalization of two differently labeled dyneins in moving DDJ complexes in assay [1] of 42%.
“tail-truncated single-headed human dynein (amino acids 1320-4646 of DYNC1H1), N-terminal GFP, Q14204 1320-4646” had a velocity of MT gliding powered by surface-bound single-headed dynein with 10 nM DCX (without DCX: 0.59 [0.56, 0.63] µm/s) in assay [2] of 0.55 µm/s. For the same substance, the dwell time on MTs (median) amounted to 1.1 s in assay [3]; 1.2 s in assay [4]; 1 s in assay [5]; 1.1 s in assay [6]; 1.3 s in assay [7]; 1.4 s in assay [8]. In addition, the landing rate on MTs in assay [3] was determined as 1.4; in assay [4], 1.1; in assay [5], 1.6; in assay [6] it was 2.1; in assay [7], 1.6; in assay [8], 2.1.
